Experiments:
FUS∆LCD [1] = molecular target: T1, FUS∆LCD (UniProt P35637 164-526); assay: fluorescence titration (Cy3-protein intensity); settings: apparent Kd; concentration as rNMP (nucleotides), not molecules; Hill fit n 3.07; Buffer, salt, pH and temperature of the fluorescence titrations are not given in the material; concentrations are in nucleotide units. Poly(ADP-ribose) (Kd,app …)
FUS∆LCD [2] = molecular target: T1, FUS∆LCD; assay: fluorescence titration (Cy3-protein intensity); apparent Kd; concentration as dNMP (nucleotides), not molecules; Hill fit n 1.12; Buffer, salt, pH and temperature of the fluorescence titrations are not given in the material; concentrations are in nucleotide units. Poly(ADP-ribose) (Kd,app); settings: protein: recombinant; tags: Cy3 label (sulfo-cyanine 3 NHS ester); blunt; one-nucleotide gap between strands 1 and 2, opposite G of strand 3

T1 sequence (P35637 164-526): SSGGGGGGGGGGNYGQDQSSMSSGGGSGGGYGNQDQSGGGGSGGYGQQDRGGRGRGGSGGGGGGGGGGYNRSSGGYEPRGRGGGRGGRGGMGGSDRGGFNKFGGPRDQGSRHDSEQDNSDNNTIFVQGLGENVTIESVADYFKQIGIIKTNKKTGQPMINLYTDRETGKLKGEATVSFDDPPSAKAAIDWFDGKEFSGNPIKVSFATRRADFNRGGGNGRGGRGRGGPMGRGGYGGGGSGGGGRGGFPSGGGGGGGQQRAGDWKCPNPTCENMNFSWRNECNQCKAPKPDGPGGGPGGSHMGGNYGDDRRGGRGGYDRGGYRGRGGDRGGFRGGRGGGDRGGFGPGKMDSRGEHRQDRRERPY

RNA (~3000 nt luciferase mRNA)
Kd (FUS∆LCD [1]): 183 nM

B1: dsDNA (30 bp, one-nucleotide gap) (dsDNA)
DNA 1: GGGTTGGTTTGCG
DNA 2: ATTCACAGTTCTCCGC
DNA 3: GCGGAGAACTGTGAATGCGCAAACCAACCC
modifications: 5'-phosphate on S4 (downstream strand); 3'-OH on S3
Kd (FUS∆LCD [2]): 2560 ± 159 nM
